# According to the nanobody polyreactivity screen of Harvey et al. (2022):
# Experiment: yeast display, Sf9 membrane polyspecificity reagent, FACS + sequencing; frameworks hold sequencing errors
# In short: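 Using colony PCR, genes from sorted yeast display clones were amplified, then sequenced on MiSeq at 2 × 250 and filtered by CDR length. The clones had been stained with 10% biotinylated, detergent-solubilized Sf9 membrane reagent for 1 hour at 4 °C and sorted by FACS into low and high (top ~1%) gates on anti-HA and streptavidin fluorescence. Polyreactivity labels come from the gate of origin.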
row,Sequence,polyreactivity (PSR sort gate)
1,QVQLVESGGGLVQAGVSLRLSCAASGITFARYTMGWYRQAPGKERELVAAINTSGGSTRYADSVKGRFTISRDNAKNTVYLQMNSLKPEDTAVYYCAARRKHSLFGKRYYWGQGTQVTVSS,high polyreactivity
2,QVQLGESGGGLVQAGGSLRLSCAASGSIFAYYAMGWYRQAPGKERELVAGISGSGGSTYYADSVKGRFTISRDNAKNTVYLQMNSLKPEDTAVYYCAVDGRRNGDVRYNYWGQGTQVTVSS,high polyreactivity
3,QVQLVESGGGLVQAGGSLRLSCAASGYTILSYGMGWYRQAPGKERELVADISSGDRTNYADSVKGRFTISRDNAKNTVYLQMNSLKPEDTAVYYCNADRASSSVGYSDDFGHDSWGQGTQVTVSS,low polyreactivity
4,QVQLVESGGGLVQAGGSLRLSFDASGLIFWGYAMGWYRQAPGKERELVAAISSSCGSTYYADSVKGRFTISRDNAKNTVYLEMNSLQPEDTAVYYCNADYTYYPGYDFWGQGTQVTVSS,low polyreactivity
5,QLQHVESGGGLVQAGGSLRLSCADSGRTFQYYAMGSYRQPPGKESELVAAINTSGGRTSYADSVKGRFTISRDNAKNTVYLQMNILKPEDTAVYYCAAKPFSYVYSSYYYWGQGTQVTVSS,high polyreactivity
6,QVQLVESGGGLVQAGGSLRLSCAASGRIFYFYAMGWYRQAPGKERELVAGITRSGDSTYADSVKGRFTISRDNAKNTVYLQMNSLKPEDTAVYYCAADFPWSTKSCHPDSGDSWGQGTQVTVSS,low polyreactivity
7,QVQLVESGGGLVQAGGSLRLSCAASGLTFVKNAMGWYRQAPGKDRELVATISSGGSTNYADSVKGRFTISRDNAKNTVYLQMNSLKPEDTAVYYCNKDITGVLLWIWWDRYDYWGQGTQVTVSS,high polyreactivity
8,QVQLVESGGGLVEAGGRLSLSCAASGSIFHRNAMGGFRQAPGTERELVAAITYSGGGTYYADSVKGRFTISRDNAKNTVYLQMNSLKPEDTAVYYCAADYKSKYSRYIYDYWGQGPQVTVSS,low polyreactivity
9,QVQLVESGGGLVQAGGSLRLSCAPSGSIFAYYAMGWYRPAPGKERELVAAISKSGGRTYYADSVKGRFTISRDNAKNTVYLQMNSLKPEDTAVYYCAADGPGYTYDYWGQGTQVTVSS,high polyreactivity
10,QVQLVESGGCLVQAGGSLRLSCYASGSIFVDKAMGWFRQPPGKERELVAAITDSGGRTYYADSVKGRFTISRDNAKNTVYLQKNSLKPEDTAVYYCAAGQSGYAGRRPAFGSWGQGTQVTVSS,low polyreactivity
11,QVQLVESGGGLVQAGGSLRLSCAASGRIFAFNAMGWYRQAPGKERELVAAITGRGGRTYYADSVKGRFTISRDNAKNTVYLQMNSLKPEDTAVYYCAAQRYINYDYWGQGTQVTVSS,high polyreactivity
12,QVQLVESGGVLVQAGGSLRLSCAASGSIFWSNAMGWSRQAPGKERELVAAITTSDGSTYYADSVKGRFTISRDHAKNTVYLQMNSLKPEDSAVYYCAADASTWYTEEYWGQGTQVTVSS,low polyreactivity
13,QVQRVESVGGLVQAGGSLRLICAASGRIFQVNAIGWYRQAPGKERELVAAITYSGGTTYYADSVKGRFTISRDNAKNTVYLQMNSLKPEDTAVYYCAAEGYGALGDPWQYGYEYWGQGTQVTVSS,low polyreactivity
14,QVQLVESGGGLVQAGGSLRLSCAASGTIFTTYAIGWYRQEPGKERELVSAISGRGSDTYYADSVKGRFTISRDNAMNTVYLQMNSLKPEDTAVYYCNARRSRAYHGRSFEYWGQGTQVTLSS,low polyreactivity
15,QVQLVESGGGLVQAGGSLRLSCAASGNTFASNAMGWYRQAPGKERELVATISTSGTTYYADSVKGRFTISRDNAKNTVYLQMNSLKPEDTAVYYCARTFKSRRGSRGYYWGQGTQVTVSS,high polyreactivity
16,QVQLVESGRGLVQAGGSLRLSCAASGYIFVYNAMGWYRQAPGKERELVAAITDGGGSTYADSVKGRFTISRDNAKNTVYLQMMSLNPEDTADYYCAARYSDTTWYVLYYYWGQGTQVTVSS,low polyreactivity
